Test results reported in patent US20090170219, “Nucleic acid capable of binding to immunoglobulin G and use thereof” (published 2009).

Key:
IgG1 [1] = target: T1, IgG1 (human, UniProt P01857-1 P01857-1:1-330); assay: SPR; details: tags: Calbiochem, chain copies: 2
IgG1 [2] = target: T1, IgG1; assay: SPR; solution A; details: tags: Calbiochem, chain copies: 2
Experimental: (§1) Used for the measurements was BIAcore 2000 manufactured by BIAcore. Used as the sensor chip was the SA chip having streptavidin immobilized thereon. Bound thereto was about 1000 RU of 16-residue Poly dT having biotin bound to the 5′ end thereof. The RNA for use as the ligand had 16-residue Poly A added to the 3′ end thereof, and immobilized to the SA chip via a bond between dT and A. The amount immobilized was adjusted to about 1000 RU by injecting 60 μL at a concentration of 0.01 μg/μL. 70 μL of IgG-Fc for analyte (manufactured by Athens Research & Technology), adjusted to 0.6 μM, was injected. The running buffer used had the same components as those of the solution A used in SELEX.
The dissociation constant was determined by immobilizing an RNA having 16-residue PolyA added to the 3′ end thereof onto a sensor chip via an A-dT bond, injecting different concentrations of IgG (0.6 μM to 0.05 μM), and performing surface plasmon resonance.
Measurements were performed in the same manner as Example 1 by immobilizing an RNA having 16-residue Poly A added thereto via an A-pT bond, and injecting IgG thereto.

IgG1 [3] = target: T1, IgG1; assay: SPR; parent SEQ 15 ++++; details: tags: Calbiochem; chain copies: 2
IgG1 [4] = target: T1, IgG1; assay: SPR; parent SEQ 17 ++; details: tags: Calbiochem; chain copies: 2
Experimental: as §1
The RNAs were prepared by chemical synthesis (manufactured by Gene Design). Their binding affinities were measured by a surface plasmon resonance method as in Example 1. Used as the IgG was human IgG1 (manufactured by Calbiochem).

[5] = label: 3' A16 tail for immobilisation, GGUGCU bulge
[6] = label: 3' A16 tail for immobilisation

T1 sequence (P01857 other isoform, or with tags, fused parts or gaps): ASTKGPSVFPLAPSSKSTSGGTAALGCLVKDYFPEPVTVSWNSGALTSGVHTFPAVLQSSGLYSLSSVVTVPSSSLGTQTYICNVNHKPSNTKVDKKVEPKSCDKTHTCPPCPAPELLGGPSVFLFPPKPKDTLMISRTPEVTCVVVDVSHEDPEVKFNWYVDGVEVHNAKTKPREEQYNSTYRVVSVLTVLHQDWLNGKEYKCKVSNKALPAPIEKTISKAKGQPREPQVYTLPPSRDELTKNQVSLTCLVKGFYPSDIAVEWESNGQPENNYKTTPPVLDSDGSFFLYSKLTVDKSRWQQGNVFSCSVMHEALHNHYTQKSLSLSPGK

B1: SEQ ID NO:17 C8U (ssRNA)
RNA: GGAGGUGUUCCGAAAGGAACUCC
modifications: 2'-F at all pyrimidines [2'-F pyrimidines at 6,8,9,10,11,20,21,22,23]
IgG1 [1]
  binding result: no binding

B2: SEQ ID NO:2 (ssRNA)
RNA: GGGACACAAUGGACGUCAAAGAAGAGGUGCUCUGCGAGCCACGCGGAACUCUAUAACGGCCGACAUGAGAG
modifications: 2'-F at all pyrimidines
IgG1 [2]; [5]
  Kd: 5 nM

B3: SEQ ID NO:18 (ssRNA)
RNA: GGAGGUGCUCGAAAGAACUCC
modifications: 2'-F at all pyrimidines
IgG1 [1]; [6]
  binding result: binds

B4: SEQ ID NO:19 (ssRNA)
RNA: GGGUACGAGUCUGGACUUGCAACAAGGUGCUCCACCUACCUAGUGGAACUUGCUGAUGAGGCUCACAACAGGC
modifications: 2'-F at all pyrimidines
IgG1 [1]
  binding result: binds

B5: SEQ ID NO:22 (ssRNA)
RNA: GGGUACGAGUCUGGACUUGCAAUACGAGGUGCUCCAAGGAAUCGCCCUGGAACUCGACGACGUGAGGCUCACAACAGGC
modifications: 2'-F at all pyrimidines
IgG1 [1]; GGUGCU bulge
  binding result: binds

B6: SEQ ID NO:5 (ssRNA)
RNA: GGGACACAAUGGACGACUACAAGGUGCUCCUUGAAAUGUUAAAUGAGGAACUUGUAACGGCCGACAUGAGAG
modifications: 2'-F at all pyrimidines
IgG1 [2]; [5]
  Kd: 30 nM

B7: SEQ ID NO:10 (ssRNA)
RNA: GGAAUGGACGAGUUACAGGUGCUCCAUCAACAAAAUGUUACAUGGAACUGUAACGGCCGACAU
modifications: 2'-F at all pyrimidines
IgG1 [2]; [6]
  Kd: 6 nM

B8: SEQ ID NO:11 (ssRNA)
RNA: GGACGAGUUACAGGUGCUCCAUCAACAAAAUGUUACAUGGAACUGUAACGGCCG
modifications: 2'-F at all pyrimidines
IgG1 [2]; [6]
  Kd: 1 nM

B9: SEQ ID NO:15-4 (30F-4) (mixed)
RNA: GGAGGUGCUCCGCGGAAACGCGGAACUCC
modifications: deoxy G1 G2 C13 G15 A16 A17 A18 C19 C21 C28 C29; 2'-F U6 C8 U9 C10 C11 C26 U27; rest 2'-OH
IgG1 [3]
  binding result: binds

B10: SEQ ID NO:12 (ssRNA)
RNA: GGACAGGUGCUCCAUCAACAAAAUGUUACAUGGAACUGUCC
modifications: 2'-F at all pyrimidines
IgG1 [1]; [6]
  binding result: binds

B11: SEQ ID NO:3 (ssRNA)
RNA: GGGACACAAUGGACGGCGUAAAAUGGAACCUGGGUUAGAAUAUCGGGGGUGCUCCGUAACGGCCGACAUGAGAG
modifications: 2'-F at all pyrimidines
IgG1 [2]; [5]
  Kd: 10 nM

B12: SEQ ID NO:20 (ssRNA)
RNA: GGGUACGAGUCUGGACUUGCAAGGUGCUCCGUUAGCAUUGCGGAACUUGCAAUAUAUCCUAUUGAGGCUCACAACAGGC
modifications: 2'-F at all pyrimidines
IgG1 [1]; GGUGCU bulge
  binding result: binds

B13: SEQ ID NO:14 (ssRNA)
RNA: GGACAGGUGCUCUGCGGAAACGCGGAACUGUCC
modifications: 2'-F at all pyrimidines
IgG1 [2]; [6]
  Kd: 4 nM

B14: SEQ ID NO:21 (ssRNA)
RNA: GGGUACGAGUCUGGACUUGCAACGGAUACAGGUGCUCCGAUCUUCGGAACUGGCGUUGGCGGUGAGGCUCACAACAGGC
modifications: 2'-F at all pyrimidines
IgG1 [1]; GGUGCU bulge
  binding result: binds

B15: SEQ ID NO:23 (ssRNA)
RNA: GGGUACGAGUCUGGACUUGCAACCUAAUGCGGUGCUCCUCUGGAACCAUUAGCUGUUGCAAAUGAGGCUCACAACAGGC
modifications: 2'-F at all pyrimidines
IgG1 [1]
  binding result: binds

B16: SEQ ID NO:9 (ssRNA)
RNA: GGGCCACAGCGAGGUGCUCCACCAUUCACGUGGAACUCGUGGGCAGCCCGUCCCCGCGUGUGGUCGG
modifications: 2'-F at all pyrimidines
IgG1 [2]; label: 3' A16 tail for immobilisation, GGUGCU bulge (vsfold4)
  Kd: 20 nM

B17: SEQ ID NO:8 (ssRNA)
RNA: GGGACACAAUGGACGAAAGGUGCUCCAACUAAAUUUGGAACUUUCCACCCAUAAUAACGGCCGACAUGAGAG
modifications: 2'-F at all pyrimidines
IgG1 [2]; [5]
  Kd: 3 nM

B18: SEQ ID NO:6 (ssRNA)
RNA: GGGACACAAUGGACGGCUGGUAAGGUGCUCGGAAUGGAACUCGUCAUUCGGAACUUAACGGCCGACAUGAGAG
modifications: 2'-F at all pyrimidines
IgG1 [2]; [5]
  Kd: 1 nM

B19: SEQ ID NO:16 (ssRNA)
RNA: GGACAGGUGCUCCGAAAGGAACUGUCC
modifications: 2'-F at all pyrimidines
IgG1 [2]; [6]
  Kd: 6 nM

B20: SEQ ID NO:17-13 (23F43) (mixed)
RNA: GGAGGUGCUCCGAAAGGAACUCCAAAAAAAAAAAAAAAA
modifications: as 17-8 with 2'-OMe C11
IgG1 [4]
  binding result: binds

B21: SEQ ID NO:17-4 (23F10) (mixed)
RNA: GGAGGUGCUCCGAAAGGAACUCCAAAAAAAAAAAAAAAA
modifications: deoxy G1 G2 C11 G12-A15 C22 C23 and A16 tail; 2'-F U6 C8 U9 C10 C20 U21; rest 2'-OH
IgG1 [4]
  binding result: binds

B22: SEQ ID NO:17-14 (23F31) (mixed)
RNA: GGAGGUGCUCCGAAAGGAACUCCAAAAAAAAAAAAAAAA
modifications: as 17-7 with 2'-OMe U9
IgG1 [4]
  binding result: binds

B23: SEQ ID NO:17-8 (23F25) (mixed)
RNA: GGAGGUGCUCCGAAAGGAACUCCAAAAAAAAAAAAAAAA
modifications: 2'-OMe G1 G2 G12-A15 C22 C23; 2'-F U6 C8 U9 C10 C11 C20 U21; deoxy A16 tail; rest 2'-OH
IgG1 [4]
  binding result: binds

B24: SEQ ID NO:17-5 (23F11) (mixed)
RNA: GGAGGUGCUCCGAAAGGAACUCCAAAAAAAAAAAAAAAA
modifications: deoxy G1 G2 G12-G17 C22 C23 and A16 tail; 2'-F U6 C8 U9 C10 C11 C20 U21; rest 2'-OH
IgG1 [4]
  binding result: binds

B25: SEQ ID NO:17-6 (23F12) (mixed)
RNA: GGAGGUGCUCCGAAAGGAACUCCAAAAAAAAAAAAAAAA
modifications: deoxy G1 G2 G7 G12-A15 C22 C23 and A16 tail; 2'-F U6 C8 U9 C10 C11 C20 U21; rest 2'-OH
IgG1 [4]
  binding result: binds

B26: SEQ ID NO:17-1 (23F1) (mixed)
mixed: GGAGGUGCUCCGAAAGGAACTCCAAAAAAAAAAAAAAAA
modifications: 2'-F U6 C8 U9 C20; deoxy C10 C11 T21 C22 C23 and A16 tail; rest 2'-OH
IgG1 [4]
  binding result: binds

B27: SEQ ID NO:17-2 (23F2) (mixed)
RNA: GGAGGUGCUCCGAAAGGAACUCCAAAAAAAAAAAAAAAA
modifications: deoxy G1 G2 G12-A15 C22 C23 and A16 tail; 2'-F U6 C8 U9 C10 C11 C20 U21; rest 2'-OH
IgG1 [4]
  binding result: binds

B28: SEQ ID NO:17-12 (23F42) (mixed)
RNA: GGAGGUGCUCCGAAAGGAACUCCAAAAAAAAAAAAAAAA
modifications: as 17-8 with 2'-OMe C10
IgG1 [4]
  binding result: binds

B29: SEQ ID NO:17-10 (23F33) (mixed)
RNA: GGAGGUGCUCCGAAAGGAACUCCAAAAAAAAAAAAAAAA
modifications: as 17-7 with 2'-OMe G17
IgG1 [4]
  binding result: binds

B30: SEQ ID NO:17-11 (23F41) (mixed)
RNA: GGAGGUGCUCCGAAAGGAACUCCAAAAAAAAAAAAAAAA
modifications: as 17-8 with 2'-OMe U9
IgG1 [4]
  binding result: binds

B31: SEQ ID NO:4 (ssRNA)
RNA: GGGACACAAUGGACGGCCAACGUUAACUGGAACUGUAAAUCAGGUGCUCGAGAUAACGGCCGACAUGAGAG
modifications: 2'-F at all pyrimidines
IgG1 [2]; [5]
  Kd: 20 nM

B32: SEQ ID NO:7 (ssRNA)
RNA: GGGACACAAUGGACGGGUGUUACAGGUGCUUGAUAAAGGUAGAAAAUCAAACUGUAACGGCCGACAUGAGAG
modifications: 2'-F at all pyrimidines
IgG1 [2]; [5]
  Kd: 0.001 nM

B33: SEQ ID NO:15 (ssRNA)
RNA: GGAGGUGCUCUGCGAGCCACGCGGAACUCC
modifications: 2'-F at all pyrimidines
IgG1 [2]; label: 3' A16 tail for SPR, 5' biotin for serum pull-down
  Kd: 5 nM

B34: SEQ ID NO:15-3 (30F-3) (mixed)
RNA: GGAGGUGCUCCGCGAGCCACGCGGAACUCC
modifications: deoxy G1 G2 C11 C13 A15-A19 C20 C22 C29 C30; 2'-F U6 C8 U9 C10 C27 U28; rest 2'-OH
IgG1 [3]
  binding result: binds

B35: SEQ ID NO:13 (ssRNA)
RNA: GGACAGGUGCUCUGCGAGCCACGCGGAACUGUCC
modifications: 2'-F at all pyrimidines
IgG1 [1]; [6]
  binding result: binds
